From patent publication US20060167220A1, “Methods and compositions for preparing peptides with excellent solubility characteristics in aqueous solution at physiological pH” (priority 2004, published 2006) come the findings set out here.

This data set is described as follows: Dissolution test of peptide sample (pH raised stepwise with NaOH until dissolved). The data set is classed as physicochemical. As for the experimental part:
For example, a simple dissolution test can be used to evaluate the solubility characteristics of a peptide sample. The test is conveniently carried out at a temperature in the range of from about 20° C. to about 27° C., preferably about 25° C. From about 0.1 to about 0.3 grams of peptide is combined with about 1 to about 3 ml of an aqueous medium. The medium may be deionized water. In the case of T-20 or T-1249, these peptides are mildly acidic. Consequently, the medium optionally may include some initial amount base, e.g., about 17 mM Na2CO3 or the like, to provide a suitable initial pH. […] The mixture is rapidly stirred for 5 to 10 minutes between additional increments. Solids adhering to the sides of the testing vessel should be re-suspended. Rapid mixing should be maintained throughout. Results include observations regarding the clarity of the mixture, time required for dissolution, concentration and amount of caustic used, final pH upon dissolution (if this occurs below pH 9), and the like.
For purposes of the invention, peptides such as T-20, T-1249, and GLP-1, as well as counterparts of these, may be deemed to be in a more desired, deaggregated form if dissolution in accordance with this test occurs at a pH of less than about 8, preferably less than about 7.5. If dissolution occurs at a pH of greater than about 7.5, more preferably greater than about 8, the peptide is deemed to be in a less desired aggregated form. This helps to ensure the practicality of handling the peptide during subsequent processing and handling.

[1] abbreviates: precipitated with 18% by volume acetonitrile.

As for “Acetyl-WQEWEQKITALLEQAQIQQE KNEYELQKLDKWASLWEWF-NH2 (Ac-WQEWEQKITALLEQAQIQQEKNEYELQKLDKWASLWEWF-NH2) [Sample T-1249, ID NO; 20]”, the Dissolution behavior entry (precipitated with 14% by volume acetonitrile) is recorded as “dissolved to some degree at a pH of 6.95 but not completely”. Also, under setting [1], the Dissolution time amounted to 1 h, the “Final pH at dissolution” value is reported as 6.69 and the Turbidity in words entry is listed as “only very faint turbidity”. Moreover, for the setting “precipitated with 20 to 22 volume percent acetonitrile”, the “Dissolution pH” value was “around 9”. In addition, for the setting “precipitated with no co-solvent”, the Dissolution behavior result was “dissolved very slowly with high turbidity even after 14 to 18 hours and even at a pH of 8”.
